Values quoted from earlier work, collected in patent US12419862B2, “Use of a cathepsin s inhibitor against the formation of anti-drug antibodies” (Hoffmann-La Roche Inc., priority 2018, dated 2025).

Conditions: current standard of care in IBD; cited from earlier work

Substance | reported immunogenicity rates
adalimumab | ≤ 26%
infliximab: anti-TNFalpha antibody, known to be highly immunogenic | up to 51%
